Results: PMC11900867
Like-named read-outs stand apart in the source and are kept apart here.

Experiments:
[1] = target: Coxsackievirus B3 (CVB3) 3CD protein (uncleaved 3C^pro-3D^pol) with Cys147Ala, Gly55Ala, Asp58Ala, Val63Ala (coxsackievirus B3 (CVB3)); assay: mass photometry
[2] = target: Coxsackievirus B3 (CVB3) 3CD protein (uncleaved 3C^pro-3D^pol) with Cys147Ala, Gly55Ala, Asp58Ala, Val63Ala (coxsackievirus B3 (CVB3)); assay: mass photometry; remark: listed apart in the source
[3] = target: Coxsackievirus B3 (CVB3) 3C^pro protease, protease-inactive mutant (Cys147Ala) with Gly55Ala, Asp58Ala, Val63Ala (coxsackievirus B3 (CVB3)); assay: SEC
[4] = target: Coxsackievirus B3 (CVB3) 3C^pro protease, protease-inactive mutant (Cys147Ala) with Gly55Ala, Asp58Ala, Val63Ala (coxsackievirus B3 (CVB3)); assay: mass photometry

Row | Substance | stoichiometry N [1] | percent of total counts in the peak of 3CD dimer with one cloverleaf RNA [2] [%] | stoichiometry N [2] | stoichiometry N [3] | stoichiometry N [4]
1 | Coxsackievirus B3 (CVB3) 3CD protein (uncleaved 3C^pro-3D^pol) with Cys147Ala, Gly55Ala, Asp58Ala, Val63Ala (enzyme) | 2 | 19 to 23 | 2 | – | –
2 | Coxsackievirus B3 (CVB3) 3C^pro protease, protease-inactive mutant (Cys147Ala) with Gly55Ala, Asp58Ala, Val63Ala (enzyme) | – | – | – | 2 | 2
